# Experimental data reported in patent US20230192902A1, “ABCG2 EFFLUX PUMP-CANCER ANTIGEN MULTI-SPECIFIC ANTIBODIES AND COMPOSITIONS, REAGENTS, KITS AND METHODS RELATED THERETO” (Kenjockety Biotechnology, Inc., priority 2020, published 2023).
# System: 293T_ABCG2_OX cells (293T cells stably transfected to express ABCG2)
# Experiment: Topotecan cytotoxicity assay in the presence of antibodies (CellTiter-Glo)
# Assay type: cell-based, human
# Conditions: FIG. 1; 293T cells overexpressing ABCG2; 72-96 hr; IC50 values only in the figure
# Experimental: Cytotoxicity Assays. The effect of antibodies on topotecan cytotoxicity was evaluated on 293T_ABCG2_OX cells, 293T cells stably transfected to express ABCG2. Cells were plated in 0.05 mL of Assay Media (DMEM +10% FBS) at 5000 cells/well in white, flat bottom 96-well tissue culture plates. Topotecan was prepared at 2X final assay concentration by serial dilution from 200 uM in assay media containing test antibodies or control antibodies at 100 ug/mL (2X final concentration), or Fumitremorgin C (FTC), a small molecule ABCG2 inhibitor at (2X final concentration). An equivalent volume (0.05 mL) of the topotecan/antibody mixture was added to the 293T_ABCG2_OX cells in 96-well plates. The plates were then incubated at 37° C., in 5% CO2. After about 72-96 hr plates were equilibrated to room temperature and cell viability assessed using Promega® CellTiter-Glo® Luminescent Cell Viability Assay according to the manufacturer’s recommended protocol. Luminescence was measured on a Molecular Devices® FlexStation® 3 Multi-Mode Microplate Reader and data analyzed using GraphPad Prism 8.0 software. Half maximal inhibitory concentration (IC50) is the concentration of drug (topotecan or other chemotherapy cytotoxic agent) where the response (cell growth) is reduced by 50%.
row,Molecule,susceptibility of cells to topotecan in the presence of the antibody
1,"5D3hVHv1DDKT14KK5D3hVLv1: bispecific ABCG2/CD47 antibody: humanized 5D3 VH version 1 (DD), 5F9 HC (KK), humanized 5D3 VL version 1 common light chain (antibody, V domains shown) VH 1: EVQLQESGPGLVKPSETLSLTCTVSGFSITSDYAWNWIRQPPGKGLEWMGYINFDGGTTYNPSLRGRITISRDTSKNQFSLKLSSVTAADTAVYYCATFYGAKGTLDYWGQGTLVTVSS VH 2: QVQLVQSGAEVKKPGASVKVSCKASGYTFTNYNMHWVRQAPGQRLEWMGTIYPGNDDTSYNQKFKDRVTITADTSASTAYMELSSLRSEDTAVYYCARGGYRAMDYWGQGTLVTVSS VL: DIQLTQSPSSLSASVGDRVTITCKASGYILNRLAWYQQKPGKAPKLLISGATSLETGFPSRFSGSGSGKDYTLTISSLQPEDFATYYCQQYWSTPWTFGGGTKLEIK",increased susceptibility to topotecan
2,"5D3hVHv2DDKT14KK5D3hVLv1: bispecific ABCG2/CD47 antibody: humanized 5D3 VH version 2 (DD), 5F9 HC (KK), humanized 5D3 VL version 1 common light chain (antibody, V domains shown) VH 1: EVQLQESGPGLVKPSETLSLTCTVSGFSITSDYAWNWIRQPPGKGLEWIGYINFDGGTTYNPSLRGRVTISRDTSKNQFSLKLSSVTAADTAVYYCATFYGAKGTLDYWGQGTLVTVSS VH 2: QVQLVQSGAEVKKPGASVKVSCKASGYTFTNYNMHWVRQAPGQRLEWMGTIYPGNDDTSYNQKFKDRVTITADTSASTAYMELSSLRSEDTAVYYCARGGYRAMDYWGQGTLVTVSS VL: DIQLTQSPSSLSASVGDRVTITCKASGYILNRLAWYQQKPGKAPKLLISGATSLETGFPSRFSGSGSGKDYTLTISSLQPEDFATYYCQQYWSTPWTFGGGTKLEIK",increased susceptibility to topotecan
3,"5D3: anti-ABCG2 antibody 5D3; VH SEQ ID NO:5, VL SEQ ID NO:1; tested with human IgG1 constant regions (antibody, V domains shown, human IgG1 constant regions, anti-ABCG2 antibody 5D3; tested with human IgG1 constant regions) VH: QVQLQESGPGLVKPSQSLSLTCTVTGFSITSDYAWNWIRQFPGKKLEWMGYINFDGGTTYNPSLRGRISITRDTSKNQFFLQLRSVTPEDTATYYCATFYGAKGTLDYWGQGTSVTVSS VL: DIVLTQSPSSFSVSLGDRVTISCKASGYILNRLAWYQQKPGNAPRLLISGATSLETGFPSRFSGTGSGKDYTLSISSLQTEDVGTYYCQQYWSTPWTFGGGTKLEIR",increased susceptibility to topotecan
4,"5D3DDKT14KK5D3: bispecific ABCG2/CD47 antibody: HC and LC from anti-ABCG2 antibody 5D3 and a HC from anti-CD47 antibody 5F9; DD/KK charged pair substitutions (antibody, V domains shown) VH 1: QVQLQESGPGLVKPSQSLSLTCTVTGFSITSDYAWNWIRQFPGKKLEWMGYINFDGGTTYNPSLRGRISITRDTSKNQFFLQLRSVTPEDTATYYCATFYGAKGTLDYWGQGTSVTVSS VH 2: QVQLVQSGAEVKKPGASVKVSCKASGYTFTNYNMHWVRQAPGQRLEWMGTIYPGNDDTSYNQKFKDRVTITADTSASTAYMELSSLRSEDTAVYYCARGGYRAMDYWGQGTLVTVSS VL: DIVLTQSPSSFSVSLGDRVTISCKASGYILNRLAWYQQKPGNAPRLLISGATSLETGFPSRFSGTGSGKDYTLSISSLQTEDVGTYYCQQYWSTPWTFGGGTKLEIR",increased susceptibility to topotecan
